B1: Azoarcus group I ribozyme (parent)
chain: GUGCCUUGCGCCGGGAAACCACGCAAGGGAUGGUGUCAAAUUCGGCGAAACCUAAGCGCCCGCCCGGGCGUAUGGCAACGCCGAGCCAAGCUUCGGCGCCUGCGCCGAUGAAGGUGUAGAGACUAGACGGCACCCACCUAAGGCAAACGCUAUGGUGAAGGCAUAGUCCAGGGAGUGGCGAAAGUCACACAAACCGG

Variants of: B1
Assay: reverse-splicing fitness (ratio to wild type); higher = more active; in vitro selection; Mg2+ level not given
Method in brief: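 An in vitro group I ribozyme library with randomized positions was T7-transcribed and gel-purified. In triplicate, 10 pmol RNA in EPPS pH 7.5 was reacted with 50 pmoles of a 30-nt RNA substrate for 1 h at 37 °C across several added MgCl2 levels (1–48 mM), then stopped with EDTA. Products were reverse transcribed from a substrate-complementary primer, PCR-amplified and sequenced (HiSeq 4000). Fitness is a variant's read proportion after selection over that before, normalised to wild type.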

Question: With C82G A111C A145C C150U U176A as the variant, how does the reverse-splicing fitness read?
Answer: 0.0341

Question: Which reverse-splicing fitness does the source give for C82G A111C A145C C150U U176G here?
Answer: 0.0162

Question: With C82G A111C A145C C150U U176C as the variant, how does the reverse-splicing fitness read?
Answer: 0.044

Question: For C82G A111C A145U C150A U176C, which reverse-splicing fitness is on record?
Answer: 0.0248

Question: With C82G A111C A145U C150A U176A as the variant, how does the reverse-splicing fitness read?
Answer: 0.0202

Question: With C82G A111C A145U C150A U176G as the variant, how does the reverse-splicing fitness read?
Answer: 0.0105

Question: Which reverse-splicing fitness does the source give for C82G A111C C150U C169A U176A here?
Answer: 0.0125

Question: Which reverse-splicing fitness does the source give for C82G A111C C150U C169A U176C here?
Answer: 0.0143

Question: Which reverse-splicing fitness does the source give for C82G A111C C150U C169A U176G here?
Answer: 0.00817

Question: For C82G A111C A145G C150G C169A, which reverse-splicing fitness is on record?
Answer: 0.0091

Question: Which reverse-splicing fitness does the source give for C82G A111C A145G C150G C169G here?
Answer: 0.00707

Question: Which reverse-splicing fitness does the source give for C82G A111C A145G C150G C169U here?
Answer: 0.0089

Question: For C82G A111C A145U C150U, which reverse-splicing fitness is on record?
Answer: 0.172

Question: For C82G A111C A145U C150A, which reverse-splicing fitness is on record?
Answer: 0.0253

Question: For C82G A111C A145U C150G, which reverse-splicing fitness is on record?
Answer: 0.0245

Question: With C82G A111C C150G U176C as the variant, how does the reverse-splicing fitness read?
Answer: 0.0159

Question: Which reverse-splicing fitness does the source give for C82G A111C C150G U176A here?
Answer: 0.00967

Question: With C82G A111C C150G U176G as the variant, how does the reverse-splicing fitness read?
Answer: 0.00449

Question: For C82G A111G A120C A145G C150U C169U U176A, which reverse-splicing fitness is on record?
Answer: 0.0133

Question: With C82G A111G A120C A145G C150U C169U U176G as the variant, how does the reverse-splicing fitness read?
Answer: 0.00664

Question: With C82G A111G A120C A145G C150U C169U U176C as the variant, how does the reverse-splicing fitness read?
Answer: 0.0145

Question: For C82G A111C A145U C150U C169A U176C, which reverse-splicing fitness is on record?
Answer: 0.0132

Question: Which reverse-splicing fitness does the source give for C82G A111C A145U C150U C169A U176A here?
Answer: 0.0121

Question: With C82G A111C A145U C150U C169A U176G as the variant, how does the reverse-splicing fitness read?
Answer: 0.00772

Question: For C82G A111G A120C, which reverse-splicing fitness is on record?
Answer: 0.0886

Question: With C82G A111C C150A C169G U176A as the variant, how does the reverse-splicing fitness read?
Answer: 0.0173

Question: For C82G A111C C150A C169G U176C, which reverse-splicing fitness is on record?
Answer: 0.024

Question: With C82G A111C C150A C169G U176G as the variant, how does the reverse-splicing fitness read?
Answer: 0.00931

Question: Which reverse-splicing fitness does the source give for C82G A111C A145C C150U here?
Answer: 0.0631

Question: Which reverse-splicing fitness does the source give for C82G A111C A145C U176C here?
Answer: 0.137

Question: For C82G A111C A145C U176A, which reverse-splicing fitness is on record?
Answer: 0.126

Question: Which reverse-splicing fitness does the source give for C82G A111C A145C U176G here?
Answer: 0.0504

Question: For C82G A111C C169G, which reverse-splicing fitness is on record?
Answer: 0.00928

Question: For C82G A111C C169U, which reverse-splicing fitness is on record?
Answer: 0.0148

Question: Which reverse-splicing fitness does the source give for C82G A111C C169A here?
Answer: 0.00871

Question: With C82G A111G A120C A145G C150U C169U as the variant, how does the reverse-splicing fitness read?
Answer: 0.016

Question: Which reverse-splicing fitness does the source give for C82G A111G A120C A145G C150U C169G here?
Answer: 0.00893

Question: With C82G A111G A120C A145G C150U C169A as the variant, how does the reverse-splicing fitness read?
Answer: 0.0104

Question: For C82G A111G A120C A145C C150U U176C, which reverse-splicing fitness is on record?
Answer: 0.0167

Question: With C82G A111G A120C A145C C150U U176A as the variant, how does the reverse-splicing fitness read?
Answer: 0.0141

Question: Which reverse-splicing fitness does the source give for C82G A111G A120C A145C C150U U176G here?
Answer: 0.00724

Question: Which reverse-splicing fitness does the source give for C82G A111C A145G C169G U176G here?
Answer: 0.00727

Question: For C82G A111C A145G C169G U176C, which reverse-splicing fitness is on record?
Answer: 0.0315

Question: With C82G A111C A145G C169G U176A as the variant, how does the reverse-splicing fitness read?
Answer: 0.0207

Question: For C82G A111G A120C A145C C150A C169G, which reverse-splicing fitness is on record?
Answer: 0.00899

Question: With C82G A111G A120C A145C C150A C169A as the variant, how does the reverse-splicing fitness read?
Answer: 0.00953

Question: Which reverse-splicing fitness does the source give for C82G A111G A120C A145C C150A C169U here?
Answer: 0.00986

Question: With C82G A111C A145G C150A C169G as the variant, how does the reverse-splicing fitness read?
Answer: 0.00789

Question: With C82G A111C A145G C150A C169A as the variant, how does the reverse-splicing fitness read?
Answer: 0.00903

Question: For C82G A111C A145G C150A C169U, which reverse-splicing fitness is on record?
Answer: 0.00998

Question: For C82G A111C A145C C150U C169G, which reverse-splicing fitness is on record?
Answer: 0.00777

Question: With C82G A111C A145C C150U C169U as the variant, how does the reverse-splicing fitness read?
Answer: 0.0113

Question: Which reverse-splicing fitness does the source give for C82G A111C A145C C150U C169A here?
Answer: 0.00808

Question: With C82G A111C A145U C169A U176C as the variant, how does the reverse-splicing fitness read?
Answer: 0.0153

Question: For C82G A111C A145U C169A U176A, which reverse-splicing fitness is on record?
Answer: 0.0149

Question: Which reverse-splicing fitness does the source give for C82G A111C A145U C169A U176G here?
Answer: 0.00775

Question: Which reverse-splicing fitness does the source give for C82G A111C A145G C150U C169A U176A here?
Answer: 0.0153

Question: With C82G A111C A145G C150U C169A U176C as the variant, how does the reverse-splicing fitness read?
Answer: 0.0146

Question: For C82G A111C A145G C150U C169A U176G, which reverse-splicing fitness is on record?
Answer: 0.00789

Question: With C82G A111C A145U C150A C169G U176G as the variant, how does the reverse-splicing fitness read?
Answer: 0.0081

Question: With C82G A111C A145U C150A C169G U176A as the variant, how does the reverse-splicing fitness read?
Answer: 0.0157

Question: Which reverse-splicing fitness does the source give for C82G A111C A145U C150A C169G U176C here?
Answer: 0.0181

Question: For C82G A111G A120C A145G C150U C169G U176G, which reverse-splicing fitness is on record?
Answer: 0.00597

Question: With C82G A111G A120C A145G C150U C169G U176C as the variant, how does the reverse-splicing fitness read?
Answer: 0.0192

Question: For C82G A111G A120C A145G C150U C169G U176A, which reverse-splicing fitness is on record?
Answer: 0.0174

Question: Which reverse-splicing fitness does the source give for C82G A111G A120C A145G C150A C169U here?
Answer: 0.0118

Question: Which reverse-splicing fitness does the source give for C82G A111G A120C A145G C150A C169A here?
Answer: 0.0118

Question: With C82G A111G A120C A145G C150A C169G as the variant, how does the reverse-splicing fitness read?
Answer: 0.0104

Question: With C82G A111C A145C C150U C169A U176A as the variant, how does the reverse-splicing fitness read?
Answer: 0.0156

Question: With C82G A111C A145C C150U C169A U176G as the variant, how does the reverse-splicing fitness read?
Answer: 0.00839

Question: Which reverse-splicing fitness does the source give for C82G A111C A145C C150U C169A U176C here?
Answer: 0.0132

Question: For C82G A111C A145C C169A, which reverse-splicing fitness is on record?
Answer: 0.00847

Question: For C82G A111C A145C C169U, which reverse-splicing fitness is on record?
Answer: 0.0125

Question: Which reverse-splicing fitness does the source give for C82G A111C A145C C169G here?
Answer: 0.00898

Question: For C82G A111G A120C A145C C150U C169G U176A, which reverse-splicing fitness is on record?
Answer: 0.0242

Question: For C82G A111G A120C A145C C150U C169G U176C, which reverse-splicing fitness is on record?
Answer: 0.0152

Question: Which reverse-splicing fitness does the source give for C82G A111G A120C A145C C150U C169G U176G here?
Answer: 0.0061

Question: With C82G A111C C169G U176G as the variant, how does the reverse-splicing fitness read?
Answer: 0.00724

Question: Which reverse-splicing fitness does the source give for C82G A111C C169G U176C here?
Answer: 0.0255

Question: For C82G A111C C169G U176A, which reverse-splicing fitness is on record?
Answer: 0.0182

Question: Which reverse-splicing fitness does the source give for C82G A111C C150G C169A here?
Answer: 0.00894

Question: With C82G A111C C150G C169G as the variant, how does the reverse-splicing fitness read?
Answer: 0.00655

Question: For C82G A111C C150G C169U, which reverse-splicing fitness is on record?
Answer: 0.00898
